Test results taken from the supplement of paper PMC9233669.
This sample holds only a part of the variants without activity.

Experiments:
biotinyl-Phe-oxazolone = assay: self-aminoacylation, catalytic enhancement (BFO) (fold over background); higher = more active; k-Seq, kA / k0A0; sequences stand for … in GGGAAUGGAUCCACAUCUACGAAUUC…UUCACUGCAGACUUGACGAAGCUG
Procedure, shortened: (§1)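 Mutagenized RNA pools (0.43 μM; 21-nt variable region) were treated with 2–1250 μM of each biotinyl-aminoacyl-oxazolone. Conditions were 50 μL HEPES/NaCl/KCl/MgCl2/CaCl2 buffer, 5% acetonitrile, pH 6.9–7.0, room temperature, 90 minutes. Catalytic enhancement, the median kA relative to the uncatalyzed rate, was derived from streptavidin capture, qPCR and Illumina sequencing.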

biotinyl-Trp-oxazolone = assay: self-aminoacylation, catalytic enhancement (BWO) (fold over background); higher = more active; k-Seq, kA / k0A0; sequences stand for … in GGGAAUGGAUCCACAUCUACGAAUUC…UUCACUGCAGACUUGACGAAGCUG
Procedure, shortened: as §1

biotinyl-Ile-oxazolone = assay: self-aminoacylation, catalytic enhancement (BIO) (fold over background); higher = more active; k-Seq, kA / k0A0; sequences stand for … in GGGAAUGGAUCCACAUCUACGAAUUC…UUCACUGCAGACUUGACGAAGCUG
Procedure, shortened: as §1

biotinyl-Val-oxazolone = assay: self-aminoacylation, catalytic enhancement (BVO) (fold over background); higher = more active; k-Seq, kA / k0A0; sequences stand for … in GGGAAUGGAUCCACAUCUACGAAUUC…UUCACUGCAGACUUGACGAAGCUG
Procedure, shortened: as §1

biotinyl-Leu-oxazolone = assay: self-aminoacylation, catalytic enhancement (BLO) (fold over background); higher = more active; k-Seq, kA / k0A0; sequences stand for … in GGGAAUGGAUCCACAUCUACGAAUUC…UUCACUGCAGACUUGACGAAGCUG
Procedure, shortened: as §1

biotinyl-Met-oxazolone = assay: self-aminoacylation, catalytic enhancement (BMO) (fold over background); higher = more active; k-Seq, kA / k0A0; sequences stand for … in GGGAAUGGAUCCACAUCUACGAAUUC…UUCACUGCAGACUUGACGAAGCUG
Procedure, shortened: as §1

| Sequence | self-aminoacylation (biotinyl-Phe-oxazolone) | self-aminoacylation (biotinyl-Trp-oxazolone) | self-aminoacylation (biotinyl-Ile-oxazolone) | self-aminoacylation (biotinyl-Val-oxazolone) | self-aminoacylation (biotinyl-Leu-oxazolone) | self-aminoacylation (biotinyl-Met-oxazolone) |
| --- | --- | --- | --- | --- | --- | --- |
| CUAUUUCAAACAAUCGGUCUA [Fam1A.1 aminoacylation ribozyme variant] | 2.12 | 1.15 | 0.713 | 0.588 | 0.571 | 0.634 |
| AUUACUCUGGUCAUCGGGUGA [Fam2.1 aminoacylation ribozyme variant] | 39.7 | 12.2 | 5.43 | 6.05 | 11.8 | 10.1 |
| CUAAUUCAAACAAUCGGUCCG [Fam1A.1 aminoacylation ribozyme variant] | 0.604 | 0.513 | 0.553 | 0.539 | 0.732 | 0.575 |
| CCACUUCAAACAAUCGUUCUG [Fam1A.1 aminoacylation ribozyme variant] | 2.21 | 1.09 | 0.582 | 0.674 | 0.653 | 0.479 |
| AAGUUUGCUAAUUGUCGCAUG [Fam3.1 aminoacylation ribozyme variant] | 1.11 | 1.49 | 0.982 | 1.07 | 1.32 | 1.18 |
| CUACCUCAAACAAACGGUCUG [Fam1A.1 aminoacylation ribozyme variant] | 1.33 | 0.615 | 0.919 | 1.03 | 1.08 | 0.85 |
| AAGUUUGCCAAUAGGCGCAAG [Fam3.1 aminoacylation ribozyme variant] | 1.05 | 0.799 | 1.04 | 1.02 | 1.15 | 0.885 |
| AAGUUUGCUAAAGGUCGCAAG [Fam3.1 aminoacylation ribozyme variant] | 1.14 | 0.835 | 0.687 | 0.625 | 0.716 | 0.931 |
| AAGUUUGCUAAGUGUCGCAAG [Fam3.1 aminoacylation ribozyme variant] | 1.9 | 0.987 | 0.902 | 0.897 | 0.786 | 0.887 |
| AAGUUAGCUAAUGGUCGCAAG [Fam3.1 aminoacylation ribozyme variant] | 1.77 | 1.55 | 1.22 | 1.08 | 1.17 | 1.3 |
| CCACACUUAAAGAAAUCGGUC [Fam1B.1 aminoacylation ribozyme variant] | 0.562 | 0.679 | 0.754 | 0.785 | 0.749 | 0.734 |
| AAAUUUGCUAAUACUCGCAAG [Fam3.1 aminoacylation ribozyme variant] | 1.63 | 1.51 | 1.36 | 1.34 | 1.25 | 1.33 |
| CUAGUUCAAACAGUCGGUCUG [Fam1A.1 aminoacylation ribozyme variant] | 0.551 | 0.759 | 1.04 | 0.945 | 1.12 | 0.947 |
| AUCCACCUAGCUCAUCGGGUG [Fam2.2 aminoacylation ribozyme variant] | 23.3 | 2.55 | 2.2 | 2.89 | 2.55 | 3.28 |
| AUUCACCUAGGACAUCGGGAG [Fam2.2 aminoacylation ribozyme variant] | 0.29 | 0.92 | 1.02 | 0.991 | 1.03 | 1.08 |
| CCAUACUUCAAGCAAUAGGUC [Fam1B.1 aminoacylation ribozyme variant] | 1.03 | 0.513 | 0.72 | 0.633 | 0.597 | 0.505 |
| AAGUUUGCUAAGAGUCGCAUG [Fam3.1 aminoacylation ribozyme variant] | 1.82 | 1.69 | 0.902 | 1.1 | 1.03 | 1.07 |
| AUUAUCUUGGUCAUCGAGUGA [Fam2.1 aminoacylation ribozyme variant] | 12.4 | 6.57 | 3.54 | 3.11 | 5.73 | 5.16 |
| UCACACUUCAAGCUAUCGGUC [Fam1B.1 aminoacylation ribozyme variant] | 1.11 | 0.724 | 0.939 | 1.02 | 0.749 | 0.703 |
| AAAUUAGCUAAUAGUCGCAAG [Fam3.1 aminoacylation ribozyme variant] | 2.21 | 3.09 | 2.36 | 1.81 | 1.92 | 1.85 |
| AUUGACCUAAGUCAUCGGGUG [Fam2.2 aminoacylation ribozyme variant] | 56.8 | 9.4 | 5.64 | 5.26 | 12.1 | 7.6 |
| CUUCUUCAAACCAUCGGUCUG [Fam1A.1 aminoacylation ribozyme variant] | 0.739 | 0.509 | 0.856 | 0.775 | 0.722 | 0.682 |
| AUUAUCCUGGACAUCGAGUGA [Fam2.1 aminoacylation ribozyme variant] | 34.7 | 8.19 | 2.88 | 3.06 | 6.24 | 6.78 |
| AUGACCCUGGUCAUCGAGUGU [Fam2.1 aminoacylation ribozyme variant] | 692 | 64.9 | 20.6 | 23.7 | 85.3 | 89.5 |
| AUGCAACUAGGUCAUCGGGUG [Fam2.2 aminoacylation ribozyme variant] | 56.2 | 8.26 | 6.38 | 5.58 | 9.82 | 8.13 |
| CCUCACUUCAAGCAAUCGGUG [Fam1B.1 aminoacylation ribozyme variant] | 25.3 | 6.88 | 4.12 | 4.01 | 9.05 | 6.58 |
